# Measurements: patent publication US20260027208A1 (published 2026)
# B1: TCR2 (TCR)
# TCR alpha: AQTVTQSQPEMSVQEAETVTLSCTYDTSENNYYLFWYKQPPSRQMILVIRQEAYKQQNATENRFSVNFQKAAKSFSLKISDSQLGDTAMYFCAFMYPSQGGSEKLVFGKGMKLTVNPNIQNPDPAVYQLRDSKSSDKSVCLFTDFDSQTNVSQSKDSDVYITDKCVLDMRSMDFKSNSAVAWSNKSDFACANAFNNSIIPEDTFFPSPESSCDVKLVEKSFETDTNLNFQNLSVIGFRILLLKVAGFNLLMTLRLWSS
# TCR beta: MGPGLLCWVLLCLLGAGSVETGVTQSPTHLIKTRGQQVTLRCSSQSGHNTVSWYQQALGQGPQFIFQYYREEENGRGNFPPRFSGLQFPNYSSELNVNALELDDSALYLCASSSPGFRSYGYTFGSGTRLTVVEDLKNVFPPEVAVFEPSEAEISHTQKATLVCLATGFYPDHVELSWWVNGKEVHSGVCTDPQPLKEQPALNDSRYCLSSRLRVSATFWQNPRNHFRCQVQFYGLSENDEWTQDRAKPVTQIVSAEAWGRADCGFTSESYQQGVLSATILYEILLGKATLYAVLVSALVLMAMVKRKDSRG
# B2: TCR1 (TCR)
# TCR alpha: GDSVTQMEGPVTLSEEAFLTINCTYTATGYPSLFWYVQYPGEGLQLLLKATKADDKGSNKGFEATYRKETTSFHLEKGSVQVSDSAVYFCALSDRVGGARLMFGDGTQLVVKPNIQNPDPAVYQLRDSKSSDKSVCLFTDFDSQTNVSQSKDSDVYITDKCVLDMRSMDFKSNSAVAWSNKSDFACANAFNNSIIPEDTFFPSPESSCDVKLVEKSFETDTNLNFQNLSVIGFRILLLKVAGFNLLMTLRLWSS
# TCR beta: DIYQTPRYLVIGTGKKITLECSQTMGHDKMYWYQQDPGMELHLIHYSYGVNSTEKGDLSSESTVSRIRTEHFPLTLESARPSHTSQYLCASSEGLYNEQFFGPGTRLTVLEDLKNVFPPEVAVFEPSEAEISHTQKATLVCLATGFYPDHVELSWWVNGKEVHSGVCTDPQPLKEQPALNDSRYCLSSRLRVSATFWQNPRNHFRCQVQFYGLSENDEWTQDRAKPVTQIVSAEAWGRADCGFTSESYQQGVLSATILYEILLGKATLYAVLVSALVLMAMVKRKDSRG
# B3: TCR6 (TCR)
# TCR alpha: GQQLNQSPQSMFIQEGEDVSMNCTSSSIFNTWLWYKQDPGEGPVLLIALYKAGELTSNGRLTAQFGITRKDSFLNISASIPSDVGIYFCAGRREGAQKLVFGQGTRLTINPNIQNPDPAVYQLRDSKSSDKSVCLFTDFDSQTNVSQSKDSDVYITDKCVLDMRSMDFKSNSAVAWSNKSDFACANAFNNSIIPEDTFFPSPESSCDVKLVEKSFETDTNLNFQNLSVIGFRILLLKVAGFNLLMTLRLWSS
# TCR beta: GAGVSQSPRYKVAKRGQDVALRCDPISGHVSLFWYQQALGQGPEFLTYFQNEAQLDKSGLPSDRFFAERPEGSVSTLKIQRTQQEDSAVYLCASSSTLMGVNIQYFGAGTRLSVLEDLKNVFPPEVAVFEPSEAEISHTQKATLVCLATGFYPDHVELSWWVNGKEVHSGVCTDPQPLKEQPALNDSRYCLSSRLRVSATFWQNPRNHFRCQVQFYGLSENDEWTQDRAKPVTQIVSAEAWGRADCGFTSESYQQGVLSATILYEILLGKATLYAVLVSALVLMAMVKRKDSRG
# B4: TCR80 (TCR, V domains shown)
# Valpha: AQTVTQSQPEMSVQEAETVTLSCTYDTSESDYYLFWYKQPPSRQMILVIRQEAYKQQNATENRFSVNFQKAAKSFSLKISDSQLGDAAMYFCASTLSSGDKLTFGTGTRLAVRP
# Vbeta: EPEVTQTPSHQVTQMGQEVILRCVPISNHLYFYWYRQILGQKVEFLVSFYNNEISEKSEIFDDQFSVERPDGSNFTLKIRSTKLEDSAMYFCASSGVDRAYGYTFGSGTRLTVV
# B5: TCR69 (TCR, V domains shown)
# Valpha: TQLLEQSPQFLSIQEGENLTVYCNSSSVFSSLQWYRQEPGEGPVLLVTVVTGGEVKKLKRLTFQFGDARKDSSLHITAAQPGDTGLYLCAGKTTDSWGKLQFGAGTQVVVTP
# Vbeta: EPEVTQTPSHQVTQMGQEVILRCVPISNHLYFYWYRQILGQKVEFLVSFYNNEISEKSEIFDDQFSVERPDGSNFTLKIRSTKLEDSAMYFCASSEWAGTEAFFGQGTRLTVV
# B6: TCR91 (TCR, V domains shown)
# Valpha: AQKVTQAQTEISVVEKEDVTLDCVYETRDTTYYLFWYKQPPSGELVFLIRRNSFDEQNEISGRYSWNFQKSTSSFNFTITASQVVDSAVYFCALNEGGGSTLGRLYFGRGTQLTVWP
# Vbeta: DAMVIQNPRYQVTQFGKPVTLSCSQTLNHNVMYWYQQKSSQAPKLLFHYYDKDFNNEADTPDNFQSRRPNTSFCFLDIRSPGLGDAAMYLCATSTGRVYQPQHFGDGTRLSIL
# B7: TCR2 (TCR, V domains shown)
# Valpha: AQTVTQSQPEMSVQEAETVTLSCTYDTSENNYYLFWYKQPPSRQMILVIRQEAYKQQNATENRFSVNFQKAAKSFSLKISDSQLGDTAMYFCAFMYPSQGGSEKLVFGKGMKLTVNP
# Vbeta: ETGVTQSPTHLIKTRGQQVTLRCSSQSGHNTVSWYQQALGQGPQFIFQYYREEENGRGNFPPRFSGLQFPNYSSELNVNALELDDSALYLCASSSPGFRSYGYTFGSGTRLTVV
# B8: TCR4 (TCR, V domains shown)
# Valpha: QKEVEQDPGPLSVPEGAIVSLNCTYSNSAFQYFMWYRQYSRKGPELLMYTYSSGNKEDGRFTAQVDKSSKYISLFIRDSQPSDSATYLCAMGALNSGAGSYQLTFGKGTKLSVIP
# Vbeta: KAGVTQTPRYLIKTRGQQVTLSCSPISGHRSVSWYQQTPGQGLQFLFEYFSETQRNKGNFPGRFSGRQFSNSRSEMNVSTLELGDSALYLCASSLSSGTGTEAFFGQGTRLTVE
# B9: TCR5 (TCR, V domains shown)
# Valpha: GEDVEQSLFLSVREGDSSVINCTYTDSSSTYLYWYKQEPGAGLQLLTYIFSNMDMKQDQRLTVLLNKKDKHLSLRIADTQTGDSAIYFCAERDAGNNRKLIWGLGTSLAVNP
# Vbeta: GAGVSQSPRYKVAKRGQDVALRCDPISGHVSLFWYQQALGQGPEFLTYFQNEAQLDKSGLPSDRFFAERPEGSVSTLKIQRTQQEDSAVYLCASSLEGGDTQYFGPGTRLTVL
# B10: TCR1 (TCR, V domains shown)
# Valpha: GDSVTQMEGPVTLSEEAFLTINCTYTATGYPSLFWYVQYPGEGLQLLLKATKADDKGSNKGFEATYRKETTSFHLEKGSVQVSDSAVYFCALSDRVGGARLMFGDGTQLVVKP
# Vbeta: EADIYQTPRYLVIGTGKKITLECSQTMGHDKMYWYQQDPGMELHLIHYSYGVNSTEKGDLSSESTVSRIRTEHFPLTLESARPSHTSQYLCASSEGLYNEQFFGPGTRLTVL
# B11: TCR6 (TCR, V domains shown)
# Valpha: GQQLNQSPQSMFIQEGEDVSMNCTSSSIFNTWLWYKQDPGEGPVLLIALYKAGELTSNGRLTAQFGITRKDSFLNISASIPSDVGIYFCAGRREGAQKLVFGQGTRLTINP
# Vbeta: GAGVSQSPRYKVAKRGQDVALRCDPISGHVSLFWYQQALGQGPEFLTYFQNEAQLDKSGLPSDRFFAERPEGSVSTLKIQRTQQEDSAVYLCASSSTLMGVNIQYFGAGTRLSVL
# Molecular target: T1, KRAS G12D mutant peptide presented by HLA-A*11:01 on cells (human)
# Experiment: cell-based or functional assay
Binder,"Cmax (%) of CD137 T cell activation by G12D peptide, without knockout of TRAC and TRBC [%]","T cell activation EC50 (CD137 vs G12D peptide dose), TRAC/TRBC double knockout T cells [µM]","T cell activation EC50 (CD137 vs G12D peptide dose), WT TRAC/TRBC T cells [µM]"
B1,42.7,0.0101,0.0316
B2,–,0.0641,0.119
B3,–,0.0143,0.024

# Molecular target: T1, KRAS G12D mutant peptide presented by …
# Experiment: cell-based or functional assay
# Remark: another data set of the same source
Binder,"T cell activation EC50 (CD137 vs G12D peptide dose), TRAC/TRBC double knockout T cells [µM]","T cell activation EC50 (CD137 vs G12D peptide dose), WT TRAC/TRBC T cells [µM]"
B1,0.0073,0.0222
B2,0.0122,0.0511
B3,0.0064,0.0122

# Molecular target: T2, KRAS G12D peptide on HLA-A*11:01 (human)
# T2 peptide: VVVGADGVGK
# Experiment: activation reporter or marker
row,Binder,binding result
1,B4,recognises
2,B5,recognises

# Molecular target: T2, KRAS G12D peptide on HLA-A*11:01
# Experiment: CD137 by flow cytometry; transduced primary CD4+ and CD8+ T cells, TRAC/TRBC wild type; G12D peptide titrated (FIG. 3C); full-length, on cells
# Protocol: (§1) Primary CD4+ and CD8+ T cells were transduced with a KRAS-G12D-specific T cell receptor (TCR69, TCR79, TCR80, TCR81, or TCR91), and were either edited to knockout TRAC and TRBC or left with unmodified TRAC and TRBC genes, and expanded for several days. Engineered T cells were incubated with G12D peptide at decreasing concentrations and T cell responses were assessed by measuring CD137 expression.
# (§2) In additional experiments, the effect of TRAC and TRBC knockout was evaluated for primary CD4+ and CD8+ T cells transduced with further KRAS-G12D-specific TCRs. The double knockout improved TCR avidity for multiple TCRs as shown in FIG. 3C (corresponding EC50 values in TABLE 2 and Cmax values in TABLE 3), FIG. 3D (corresponding EC50 values in TABLE 4), and FIG. 3E (corresponding EC50 values in TABLE 5).
row,Binder,EC50 of peptide [µM]
1,B6,0.131
2,B7,0.0316
3,B8,0.0498
4,B9,0.0363

# Molecular target: T2, KRAS G12D peptide on HLA-A*11:01
# Experiment: CD137 by flow cytometry; transduced primary CD4+ and CD8+ T cells, TRAC/TRBC wild type; G12D peptide titrated (FIG. 3D); full-length, on cells
# Protocol: as §1, §2
row,Binder,EC50 of peptide [µM]
1,B6,0.179
2,B10,0.0511
3,B7,0.0222
4,B8,0.0311
5,B9,0.0378
6,B11,0.0122

# Molecular target: T2, KRAS G12D peptide on HLA-A*11:01
# Experiment: CD137 by flow cytometry; transduced primary CD4+ and CD8+ T cells, TRAC/TRBC wild type; G12D peptide titrated (FIG. 3E); full-length, on cells
# Protocol: as §1, §2
row,Binder,EC50 of peptide [µM]
1,B6,0.131
2,B10,0.119
3,B7,0.0316
4,B8,0.0498
5,B9,0.0363
6,B11,0.024

# Molecular target: T2, KRAS G12D peptide on HLA-A*11:01
# Experiment: CD137 by flow cytometry; transduced primary CD4+ and CD8+ T cells, TRAC/TRBC double knockout; G12D peptide titrated (FIG. 3C); full-length, on cells
# Protocol: as §1, §2
row,Binder,EC50 of peptide [µM]
1,B6,0.0365
2,B7,0.0101
3,B8,0.0118
4,B9,0.0076

# Molecular target: T2, KRAS G12D peptide on HLA-A*11:01
# Experiment: CD137 by flow cytometry; transduced primary CD4+ and CD8+ T cells, TRAC/TRBC double knockout; G12D peptide titrated (FIG. 3D); full-length, on cells
# Protocol: as §1, §2
row,Binder,EC50 of peptide [µM]
1,B6,0.0144
2,B10,0.0122
3,B7,0.0073
4,B8,0.0044
5,B9,0.0094
6,B11,0.0064

# Molecular target: T2, KRAS G12D peptide on HLA-A*11:01
# Experiment: CD137 by flow cytometry; transduced primary CD4+ and CD8+ T cells, TRAC/TRBC double knockout; G12D peptide titrated (FIG. 3E); full-length, on cells
# Protocol: as §1, §2
row,Binder,EC50 of peptide [µM]
1,B6,0.0365
2,B10,0.0641
3,B7,0.0101
4,B8,0.0118
5,B9,0.0076
6,B11,0.0143

# Molecular target: T2, KRAS G12D peptide on HLA-A*11:01
# Experiment: CD137 by flow cytometry; transduced primary CD4+ and CD8+ T cells without knockout of TRAC and TRBC; G12D peptide titrated (FIG. 3C); full-length, on cells
# Protocol: as §1, §2
row,Binder,Cmax [%]
1,B6,14.4
2,B7,42.7
3,B8,16
4,B9,23.9
